# Assay results reported in patent US20070161060A1 (published 2007).
# T1: β-catenin (UniProt P35222 2-781)
# T1 sequence (looked up): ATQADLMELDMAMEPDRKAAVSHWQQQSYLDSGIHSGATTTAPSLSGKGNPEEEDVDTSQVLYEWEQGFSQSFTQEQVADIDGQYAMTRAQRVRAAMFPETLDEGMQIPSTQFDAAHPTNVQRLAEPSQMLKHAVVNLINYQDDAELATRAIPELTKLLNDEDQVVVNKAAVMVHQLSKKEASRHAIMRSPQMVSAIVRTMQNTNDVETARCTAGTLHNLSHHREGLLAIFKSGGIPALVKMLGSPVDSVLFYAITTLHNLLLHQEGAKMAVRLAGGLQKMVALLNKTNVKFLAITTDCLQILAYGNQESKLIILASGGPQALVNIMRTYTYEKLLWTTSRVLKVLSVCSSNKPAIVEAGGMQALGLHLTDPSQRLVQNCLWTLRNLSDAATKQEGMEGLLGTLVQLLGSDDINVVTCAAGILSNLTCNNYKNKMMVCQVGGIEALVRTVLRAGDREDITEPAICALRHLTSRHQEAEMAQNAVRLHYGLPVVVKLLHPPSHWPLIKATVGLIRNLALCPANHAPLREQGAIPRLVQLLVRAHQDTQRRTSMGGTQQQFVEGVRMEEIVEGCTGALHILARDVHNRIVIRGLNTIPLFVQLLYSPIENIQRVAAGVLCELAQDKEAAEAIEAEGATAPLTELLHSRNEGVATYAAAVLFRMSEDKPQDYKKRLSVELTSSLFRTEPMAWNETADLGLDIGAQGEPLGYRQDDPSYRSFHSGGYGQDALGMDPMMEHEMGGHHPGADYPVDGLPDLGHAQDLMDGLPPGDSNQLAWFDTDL
# B1: HA-tagged PIPKIγ635 (protein)
# chain: MELEVPDEAESAEAGAVTAEAAWSAESGAAAGMTQKKAGLAEAPLVTGQPGPGHGKKLGHRGVDASGETTYKKTTSSTLKGAIQLGIGYTVGNLSSKPERDVLMQDFYVVESIFFPSEGSNLTPAHHFQDFRFKTYAPVAFRYFRELFGIRPDDYLYSLCNEPLIELSNPGASGSVFYVTSDDEFIIKTVMHKEAEFLQKLLPGYYMNLNQNPRTLLPKFYGLYCVQSGGKNIRVVVMNNVLPRVVKMHLKFDLKGSTYKRRASKKEKEKSLPTYKDLDFMQDMPEGLLLDSDTFGALVKTLQRDCLVLESFKIMDYSLLLGVHNIDQQERERQAEGAQSKADEKRPVAQKALYSTAMESIQGGAARGEAIETDDTMGGIPAVNGRGERLLLHIGIIDILQSYRFIKKLEHTWKALVHDGDTVSVHRPSFYAERFFKFMSSTVFRKSSSLKSSPSKKGRGALLAVKPLGPTAAFSASQIPSEREDVQYDLRGARSYPTLEDEGRPDLLPCTPPSFEEATTASIATTLSSTSLSIPERSPSDTSEQPRYRRRTQSSGQDGRPQEEPHAEDLQKITVQVEPVCGVGVVPKEEGAGVEVPPCGASAAASVEIDAASQASEPASQASDEEDAPSTDIYF
# B2: E-cadherin Val832Met (receptor, UniProt P12830 155-882, looked up)
# chain: DWVIPPISCPENEKGPFPKNLVQIKSNKDKEGKVFYSITGQGADTPPVGVFIIERETGWLKVTEPLDRERIATYTLFSHAVSSNGNAVEDPMEILITVTDQNDNKPEFTQEVFKGSVMEGALPGTSVMEVTATDADDDVNTYNAAIAYTILSQDPELPDKNMFTINRNTGVISVVTTGLDRESFPTYTLVVQAADLQGEGLSTTATAVITVTDTNDNPPIFNPTTYKGQVPENEANVVITTLKVTDADAPNTPAWEAVYTILNDDGGQFVVTTNPVNNDGILKTAKGLDFEAKQQYILHVAVTNVVPFEVSLTTSTATVTVDVLDVNEAPIFVPPEKRVEVSEDFGVGQEITSYTAQEPDTFMEQKITYRIWRDTANWLEINPDTGAISTRAELDREDFEHVKNSTYTALIIATDNGSPVATGTGTLLLILSDVNDNAPIPEPRTIFFCERNPKPQVINIIDADLPPNTSPFTAELTHGASANWTIQYNDPTQESIILKPKMALEVGDYKINLKLMDNQNKDQVTTLEVSVCDCEGAAGVCRKAQPVEAGLQIPAILGILGGILALLILILLLLLFLRRRAVVKEPLLPPEDDTRDNVYYYDEEGGGEEDQDFDLSQLHRGLDARPEVTRNDVAPTLMSVPRYLPRPANPDEIGNFIDENLKAADTDPTAPPYDSLLMFDYEGSGSEAASLSSLNSSESDKDQDYDYLNEWGNRFKKLADMYGGGEDD
# notes: whole, on cells; Expressed in HEK293 cells and co-immunoprecipitated from lysates; also called Val832Met E-cadherin mutant
# Experiments:
# [1] = biological target: AP2 adaptor protein complex (endogenous); experiment: cell-based or functional assay
# [2] = biological target: endogenous PIPKIγ of HEK293 cells (UniProt O60331); experiment: co-IP from HEK293 cells expressing the Myc-tagged tail
# [3] = biological target: AP2 adaptor protein complex (endogenous)
# [4] = biological target: T1, β-catenin; experiment: immunoprecipitation from HEK293 cells
# Chain of endogenous PIPKIγ of HEK293 cells (O60331 whole entry): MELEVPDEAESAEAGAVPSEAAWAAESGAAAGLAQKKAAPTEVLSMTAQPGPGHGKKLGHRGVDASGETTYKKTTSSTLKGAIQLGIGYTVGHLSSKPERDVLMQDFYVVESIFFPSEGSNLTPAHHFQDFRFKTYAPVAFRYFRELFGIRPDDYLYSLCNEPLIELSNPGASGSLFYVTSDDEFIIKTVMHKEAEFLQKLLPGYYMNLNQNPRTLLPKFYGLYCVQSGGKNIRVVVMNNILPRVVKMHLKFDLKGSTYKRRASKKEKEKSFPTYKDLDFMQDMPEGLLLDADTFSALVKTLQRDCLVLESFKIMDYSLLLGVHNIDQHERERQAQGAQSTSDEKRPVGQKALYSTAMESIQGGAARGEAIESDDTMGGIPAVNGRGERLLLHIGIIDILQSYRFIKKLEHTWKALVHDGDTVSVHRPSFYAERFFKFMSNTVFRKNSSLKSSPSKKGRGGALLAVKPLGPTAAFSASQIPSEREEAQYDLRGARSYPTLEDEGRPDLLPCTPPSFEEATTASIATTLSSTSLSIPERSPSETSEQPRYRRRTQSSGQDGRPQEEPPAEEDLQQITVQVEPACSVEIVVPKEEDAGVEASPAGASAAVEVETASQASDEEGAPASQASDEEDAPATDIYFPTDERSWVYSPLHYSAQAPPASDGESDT
molecule,measurement,setting,value
HA-tagged wild-type PIPKIγ661 (from UniProt O70161 1-661) (enzyme),"internalized ALEXA Fluor 647 transferrin, mean fluorescence intensity relative to nonexpressing cells (flow cytometry, MDCK)",[1],> 40 % increase
c-Myc-tagged dimeric E-cadherin C-terminus (Myc-HR-ECDT) (from UniProt P12830 731-882),fold affinity against the monomer,[2],10 fold
B1,transferrin endocytosis (MDCK stable line),[3],had no appreciable effect on transferrin endocytosis
B2,binding result,[4],binds
